According to publication PMC2860808 (Biochemical Journal, 2010):

T1: SPP–myc (signal peptide peptidase, myc-tagged) (human), Q8TCT9
T1 chain: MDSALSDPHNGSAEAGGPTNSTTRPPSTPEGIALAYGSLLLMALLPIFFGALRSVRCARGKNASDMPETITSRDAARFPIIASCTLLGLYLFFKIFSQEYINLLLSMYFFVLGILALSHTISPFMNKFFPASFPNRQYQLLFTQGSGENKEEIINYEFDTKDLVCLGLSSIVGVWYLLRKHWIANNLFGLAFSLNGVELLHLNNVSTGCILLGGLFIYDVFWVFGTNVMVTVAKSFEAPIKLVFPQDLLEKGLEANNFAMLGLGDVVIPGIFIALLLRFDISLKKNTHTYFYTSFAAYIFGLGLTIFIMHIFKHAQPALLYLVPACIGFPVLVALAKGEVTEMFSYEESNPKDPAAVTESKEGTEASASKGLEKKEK

B1: SPP–myc (signal peptide peptidase, myc-tagged), Q8TCT9 1-377 (enzyme)
chain: MDSALSDPHNGSAEAGGPTNSTTRPPSTPEGIALAYGSLLLMALLPIFFGALRSVRCARGKNASDMPETITSRDAARFPIIASCTLLGLYLFFKIFSQEYINLLLSMYFFVLGILALSHTISPFMNKFFPASFPNRQYQLLFTQGSGENKEEIINYEFDTKDLVCLGLSSIVGVWYLLRKHWIANNLFGLAFSLNGVELLHLNNVSTGCILLGGLFIYDVFWVFGTNVMVTVAKSFEAPIKLVFPQDLLEKGLEANNFAMLGLGDVVIPGIFIALLLRFDISLKKNTHTYFYTSFAAYIFGLGLTIFIMHIFKHAQPALLYLVPACIGFPVLVALAKGEVTEMFSYEESNPKDPAAVTESKEGTEASASKGLEKKEK
B2: SPP^D/A–myc (SPP-D265A, catalytically inactive, myc-tagged) (enzyme)
chain: MDSALSDPHNGSAEAGGPTNSTTRPPSTPEGIALAYGSLLLMALLPIFFGALRSVRCARGKNASDMPETITSRDAARFPIIASCTLLGLYLFFKIFSQEYINLLLSMYFFVLGILALSHTISPFMNKFFPASFPNRQYQLLFTQGSGENKEEIINYEFDTKDLVCLGLSSIVGVWYLLRKHWIANNLFGLAFSLNGVELLHLNNVSTGCILLGGLFIYDVFWVFGTNVMVTVAKSFEAPIKLVFPQDLLEKGLEANNFAMLGLGAVVIPGIFIALLLRFDISLKKNTHTYFYTSFAAYIFGLGLTIFIMHIFKHAQPALLYLVPACIGFPVLVALAKGEVTEMFSYEESNPKDPAAVTESKEGTEASASKGLEKKEK

Key:
[1] = target: T1, SPP–myc (signal peptide peptidase, …); assay: SDS/PAGE; conditions: remark: other sources report otherwise
native gel or EMSA = target: the molecule itself; assay: native gel or EMSA

Row | Binder | stoichiometry N [1] | stoichiometry N (native gel or EMSA)
1 | B1 | 2 | –
2 | B2 | – | 2
